For the series, the target named is T1, HRBP (1-81), amino acids 1 to 81 of the Nogo-B receptor (NgBR) family protein HRBP from Hevea brasiliensis.
T1 chain: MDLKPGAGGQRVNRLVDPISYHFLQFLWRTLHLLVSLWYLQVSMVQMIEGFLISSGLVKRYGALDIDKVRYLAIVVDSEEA

B1: LDAP1-linker-HRT1 fusion protein (protein)
chain: MAEADAKLQNDTVQEDEVTTLKYLEFVQIAAVHAVVIVSSIYDFAKDNSGPLKPGVQTVEGTVKTVMSPVYEKIQDIPLELLKFADRKVDGFVQEVDRHVPVLVKQASSQAFSAAHRAPEVARSIKSELNRVGVVDTATEMTKAAYATLEPTAKDLYIRYEPVAEHYAVSAWRSLNRLPLFSEVAHIVVPTAAYWTDKYNKGVRYMEVKGFGVASYMPLVPTERIAKVFGEREEEIVLEMSPMTTSEVVNTGNSADGGGGSGGSGGSGGGSTQGGFLALLNVLTYCYELGVKYATIYAFSIDNFRRKPHEVQYVMDLMLEKIEGMIMEESIINAYDICVRFVGNLKLLSEPVKTAADKIMRATANNSKCVLLIAVCYTSTDEIVHAVEESSELNSNEVCNNQELEEANATGSGTVIQIENMESYSGIKLVDLEKNTYINPYPDVLIRTSGETRLSNYLLWQTTNCILYSPHALWPEIGLRHVVWAVINFQRHYSYLEKHKEYLK
As for B1, the Enzymatic activity (prenyl chain elongation, radioactivity of [4-14C]IPP incorporated, dpm) came out at 837 dpm.

B2: HRT1-linker-LDAP1 fusion protein (protein)
chain: GFLALLNVLTYCYELGVKYATIYAFSIDNFRRKPHEVQYVMDLMLEKIEGMIMEESIINAYDICVRFVGNLKLLSEPVKTAADKIMRATANNSKCVLLIAVCYTSTDEIVHAVEESSELNSNEVCNNQELEEANATGSGTVIQIENMESYSGIKLVDLEKNTYINPYPDVLIRTSGETRLSNYLLWQTTNCILYSPHALWPEIGLRHVVWAVINFQRHYSYLEKHKEYLKTGNSADGGGGSGGSGGSGGGSTQGMAEADAKLQNDTVQEDEVTTLKYLEFVQIAAVHAVVIVSSIYDFAKDNSGPLKPGVQTVEGTVKTVMSPVYEKIQDIPLELLKFADRKVDGFVQEVDRHVPVLVKQASSQAFSAAHRAPEVARSIKSELNRVGVVDTATEMTKAAYATLEPTAKDLYIRYEPVAEHYAVSAWRSLNRLPLFSEVAHIVVPTAAYWTDKYNKGVRYMEVKGFGVASYMPLVPTERIAKVFGEREEEIVLEMSPMTTSEVVN
Regarding B2, the Enzymatic activity (prenyl chain elongation, radioactivity of [4-14C]IPP incorporated, dpm) was found to be 900 dpm.

These data come from patent publication US20250263754.
